Laboratory results taken from patent US9770493B2 (DSM IP ASSETS B.V., priority 2008, dated 2017).
Read-outs that look alike come from different tables or passages of the source. Peptide text beside a SMILES is read from it.

Legend:
[1] = earlier studies (Markus et al., 2000; Booij et al., 2006); cited from earlier work
[2] = set-up: species or system human; conditions: in vivo
Source text: The aim of the present study was to investigate in healthy volunteers plasma Trp/LNAA profiles and mood after the consumption of different tryptophan containing preparations.
Eighteen healthy students (9 males and 9 females: age between 18-30 years) participated in the study. Exclusion criteria for participation were chronic and current illness, history of psychiatric or medical illness, use of medication or drugs, alcohol consumption (>2 units/day), metabolic-, hormonal- or intestinal diseases and irregular diets or deviant eating habits (assessed by health and life-style questionnaires). Subjects participating in the experiment were in the normal range for the Body-Mass Index (BMI in kg/m^2 between 20-25) and female subjects are matched for contraception. Women participated during their mid-late follicular phase (day 4-10), while women using contraception participated when they actually used the contraception pill. […] All subjects participating in the experiment signed an Informed Consent Form. This study was conducted according to the EC principles of Good Clinical Practice (GCP) adopted by the 52nd WMA General Assembly, Edinburgh, Scotland, October 2000.
Subjects were instructed to fast overnight; only water or tea without sugar was permitted. During […] experimental morning sessions, subjects visited the laboratory to monitor plasma Trp/LNAA concentrations and mood following the intake of a drink containing different Trp or LNAA concentrations. The order of presentation of the various drinks was counterbalanced and the four experimental days were separated by a one-week period. On each experimental morning, a 312 ml drink was provided containing different tryptophan (Trp) or LNAA concentrations (Table 2). All drinks contained 0.10 g sweetener (acesulfame) and were filled up with plain water in order to reach 312 mL. A research assistant blind to the dietary conditions conducted the administration of the different drinks.
Blood samples were collected in duplicate before and 15, 30, 60, 90, 120, 180 and 210 minutes after ingestion in 5 ml vacutainer tubes containing sodium heparine and were then centrifuged at 5000 rpm for 5 min at 4° C. The resulting supernatants were mixed with sulfasalicyl acid (4 mg/100 microliter) and directly stored at −80° C. until analysis. Plasma amino acid analysis was conducted with HPLC, making use of a 2-3 μm Bischof Spherisorb ODS II column as described by van Eijk et al (J. Chromatogr. 1993: 620: 143-148). The plasma Trp/LNAA ratios were calculated by dividing the plasma molar tryptophan concentration by the sum of the plasma molar concentrations of the large neutral amino acids valine, isoleucine, leucine, tyrosine and phenylalanine. Statistical analysis took place by means of repeated measures multivariate and univariate analyses of variance (MANOVA and ANOVA) using the General Linear Model (GLM: SPSS 12.0 for Windows). All statistics were evaluated at a significance level of P=0.05.

healthy volunteers = assay: Profile of Mood States (POMS) after drinks with different tryptophan sources (Example 6); format: in vivo, human; conditions: for mood changes (POMS total mood scores): after the intake, over the session
Description: Subjects were instructed to fast overnight; only water or tea without sugar was permitted. During five experimental morning sessions, subjects visited the laboratory to monitor plasma Trp/LNAA concentrations and mood following the intake of a drink containing different Trp or LNAA concentrations. The order of presentation of the various drinks was counterbalanced and the four experimental days were separated by a one-week period. On each experimental morning, a 312 ml drink was provided containing different tryptophan (Trp) or LNAA concentrations (Table 2). All drinks contained 0.10 g sweetener (acesulfame) and were filled up with plain water in order to reach 312 mL. A research assistant blind to the dietary conditions conducted the administration of the different drinks.
The POMS comprises five different subscales for mood; ranging from Anger, Depression, Fatigue and Tension that refer to a negative mood state, to Vigor concerning a positive mood.

pepsin [3] = molecular target: T1, pepsin (Sus scrofa, UniProt P00791); assay: Test for protease resistancy (pepsin pH 4, SDS-PAGE); format: in vitro ADME; conditions: pepsin 1% w/w, 2 hours at 37 degrees C
T1 construct: purchased Sigma
T1 sequence (P00791 60-385): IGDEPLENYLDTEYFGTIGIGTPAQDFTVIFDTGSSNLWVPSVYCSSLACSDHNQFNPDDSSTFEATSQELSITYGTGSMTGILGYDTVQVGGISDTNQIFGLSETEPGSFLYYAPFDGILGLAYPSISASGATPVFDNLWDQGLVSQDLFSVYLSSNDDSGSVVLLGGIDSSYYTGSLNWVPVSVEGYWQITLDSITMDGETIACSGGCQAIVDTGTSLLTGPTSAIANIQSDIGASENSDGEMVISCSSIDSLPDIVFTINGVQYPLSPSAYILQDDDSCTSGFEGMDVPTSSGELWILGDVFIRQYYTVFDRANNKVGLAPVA
Description: To test its digestibility in the human stomach, a 5% (w/w) solution of the intact protein was incubated with pepsin (Sigma; 1% w/w pepsin to intact protein) for 2 hours at 37 degrees C. in a Mc Ilvane buffer (0.2 M citric acid plus Na2HPO4) pH 4.0. The degree of protease resistancy is defined as the percentage of the protein that is not affected by the pepsin incubation. “Not affected” meaning that the molecular weight of the protein has not changed as a result of the pepsin incubation; “percentage of the protein” meaning the area under the curve after digestion times 100, divided by the area under the curve prior to digestion; “area under the curve” is the area of the protein having the initial molecular weight as provided by the quantitative analysis method used (see further).
Molecular weights are compared according to SDS-PAGE followed by staining according to the protocol specified hereunder. After staining of the gel, a digital image is prepared using the OptiGo imaging system (Isogen Life Science; www.isogen-life-science.com) followed by the quantitative analysis of selected protein bands using Totallab TL 100, version 2006 software (Nonlinear Dynamics Ltd; www.nonlinear.com) running under Windows XP.
All materials used for SDS-PAGE and staining were purchased from Invitrogen (Carlsbad, Calif., US). […] Staining was performed using Simply Blue Safe Stain (Collodial Coomassie G250).
Together with beta-lactoglobulin, alpha-lactalbumin forms the major protein constituent of whey. Because of its high Trp/LNAA ratio, isolated alpha-lactalbumin fractions as well as alpha-lactalbumin hydrolysates have gained popularity for enhancing plasma tryptophan levels. […] According to the present application, a pepsin-resistant molecule with a high Trp/LNAA ratio is essential to maintain high plasma Trp/LNAA ratios longer term. […] This was illustrated in the following experiment. […] After incubation both solutions were heated for 5 minutes at 80 degrees C. to terminate the reaction and small samples were subjected to SDS-PAGE (see Materials & Methods) to test the integrity of the various pepsin treated molecules.

[4] = Kinetics of plasma Trp/LNAA ratio after hydrolysed, intact or mixed lysozyme (Example 11); format: in vivo, human; conditions: inferred from area-under-the-curve
Source text: Exclusion criteria were: chronic and current illness, at the discretion of the investigator; history of psychiatric disorders; use of selective serotonin reuptake inhibitors (SSRI); use of supplements targeting the central nervous system, such as supplements containing tryptophan, ephedrine, or St John's wort; egg allergy; drug abuse; participation in any other study involving investigational or marketed products concomitantly; intolerance to artificial sweeteners; any (history of) gastrointestinal disease that interferes with gastrointestinal function, at the discretion of the investigator; use of medication targeting the gastro-intestinal tract, such as antacids. Finally, for women, pregnancy or the use of a medically not accepted contraceptive method is an exclusion criterion as well. All subjects participating in the experiment signed an Informed Consent Form.
The study was performed according to a randomized, double-blind, crossover design with a washout period between the intake of the different treatments of three days at least.
The drinks were presented as sterile products in bottles with straws. […] A research assistant blind to the dietary conditions conducted the administration of the different drinks.
The subjects visited the site between 8 and 9 am, having fasted for at least 8 hours. A flexible cannula for blood drawings was inserted in their non-dominant forearm. […]

[5] = molecular target: T2, microbial subtilisin (EC 3.4.21.62) (Bacillus licheniformis, UniProt P00780); assay: Susceptibility of lysozyme to subtilisin (Protex 6L) hydrolysis at elevated pH, DH; format: physicochemical
T2 construct: purchased Genencor (Leiden, The Netherlands) Protex 6L
T2 sequence (P00780 106-379): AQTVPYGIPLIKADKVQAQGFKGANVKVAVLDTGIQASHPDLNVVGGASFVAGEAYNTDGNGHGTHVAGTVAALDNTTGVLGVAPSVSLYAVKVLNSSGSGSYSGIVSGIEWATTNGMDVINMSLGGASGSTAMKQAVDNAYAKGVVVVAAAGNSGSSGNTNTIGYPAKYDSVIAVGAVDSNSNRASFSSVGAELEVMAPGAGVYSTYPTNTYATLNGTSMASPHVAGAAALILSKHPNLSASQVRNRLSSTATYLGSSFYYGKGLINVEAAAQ
Description: The Degree of Hydrolysis (DH) as obtained during incubation with the various proteolytic mixtures was monitored using a rapid OPA test (Nielsen, P. M.; Petersen, D.; Dambmann, C. Improved method for determining food protein degree of hydrolysis. Journal of Food Science 2001, 66, 642-646).
The incubation was carried out for 3 hours at 60 degrees C. with a constant adjustment of the pH using 1M NaOH. The incubations yielded slightly turbid solutions without any significant precipitates. After a heating step to inactivate the subtilisin activity, the DH values of the various incubations were measured according to the protocol described in the Materials & Methods section. […] The pH 7.0 incubation yielded a DH of 6.3, the pH 8.0 incubation a DH of 11.2 and the pH 9.0 incubation a DH of 16.4.

[6] = test system: trypsin/chymotrypsin mixture; assay: Lysozyme hydrolysis by a trypsin/chymotrypsin mixture (in vitro digestibility, DH); format: in vitro ADME, Porcine; conditions: pH start 7.2, 2 hours at 37 degrees C
Description: (§1) Both incubations were carried out under pH conditions that are prevalent in the stomach (pepsin) and duodenum (trypsin/chymotrypsin). […] To prevent major pH changes as the result of the ongoing protein hydrolysis, incubation was carried out in a Mc Ilvane buffer (0.2 M citric acid plus Na2HPO4).

pepsin [7] = molecular target: T1, pepsin; assay: Lysozyme hydrolysis by pepsin (in vitro digestibility, DH); format: in vitro ADME; conditions: pH start 2.8, 2 hours at 37 degrees C
Description: as §1

Compound: ALAC: intact alpha-lactalbumin obtained as Biopure (>90% alpha-lactalbumin) from Davisco Foods; in Example 10 part of whey protein (Bipro)
- increases in plasma Trp/LNAA as previously found [1]: 50-70%
- increase in plasma Trp/LNAA ratio [2]: 67%
- mood changes (POMS total mood scores) (healthy volunteers): no mood changes
- quantity of intact protein after incubation with pepsin (SDS-PAGE) (pepsin [3]): almost completely degraded
- protease resistant according to the test (more than 50% of protein with original molecular weight present) (pepsin [3]; listed as alpha-lactoglobulin): not “protease resistant”
- protease resistant according to the test (more than 50% of protein with original molecular weight present) (pepsin [3]; listed as intact alpha-lactalbumine): not protease-resistant

Compound: N[C@@H](Cc1c[nH]c2ccccc12)C(=O)O [TRP, L-tryptophan]
- plasma Trp/LNAA ([2]; both, human, 0 min): 0.11
- plasma Trp/LNAA ([2]; both, human, 30 min): 0.12
- plasma Trp/LNAA ([2]; both, human, 60 min): 0.29
- plasma Trp/LNAA ([2]; both, human, 90 min): 0.31
- increase in plasma Trp/LNAA ratio ([2]; both, human, 120 min): 191%
- plasma Trp/LNAA ([2]; both, human, 120 min): 0.32
- plasma Trp/LNAA ([2]; both, human, 180 min): 0.24
- plasma Trp/LNAA ([2]; both, human, 210 min): 0.20
- mood (POMS total mood scores) (healthy volunteers; 60 min after the intake): Comparable improvements of mood

Compound: N[C@@H](CO)C(=O)N[C@@H](Cc1c[nH]c2ccccc12)C(=O)O [SYN, Ser-Trp] (H-Ser-Trp-OH)
- increase in plasma Trp/LNAA ratio [2]: 263%
- mood changes (POMS total mood scores) (healthy volunteers): not significant

Compound: beta-lactoglobulin: whey protein constituent of Bipro (Davisco), very low Trp/LNAA ratio (0.04)
- protease resistant according to the test (more than 50% of protein with original molecular weight present) (pepsin [3]): protease resistant
- quantity of intact protein after incubation with pepsin (SDS-PAGE) (pepsin [3]): remains largely intact

Compound: lysozyme: hen egg lysozyme (EC 3.2.1.17), intact protein, obtained as Delvozyme L or Delvozyme G from DSM Food Specialties
- digestion and uptake into the blood [4]: completely digested and taken up into the blood
- DH ([5]; pH 7.0, 3 hours at 60 degrees C): 6.3
- DH ([5]; pH 8.0, 3 hours at 60 degrees C): 11.2
- DH ([5]; pH 9.0, 3 hours at 60 degrees C): 16.4
- DH end (%) [6]: 1.3%
- protease resistant according to the test (more than 50% of protein with original molecular weight present) (pepsin [3]): protease resistant
- quantity of intact protein after incubation with pepsin (SDS-PAGE) (pepsin [3]): not significantly diminished
- DH end (%) (pepsin [7]): 2.4%
